{"source": "patent US20240317834A1", "about": "“COMPOSITIONS AND METHODS FOR NEUROLOGICAL DISEASES” (CODA BIOTHERAPEUTICS, INC., priority 2020, published 2024)", "molecules": {"B1": {"name": "CODA339: engineered chimeric LGIC receptor, L131D in SEQ ID NO: 33 (protein)", "chain": "MRCSPGGVWLALAASLLHVSLQGEFQRKLYKELVKNYNPLERPVANDSQPLTVYFSLSLLQIMDVDEKNQVLTTNIWLQMSWTDHYLQWNVSEYPGVKTVRFPDGQIWKPDILLYNSADERFDATFHTNVDVNSSGHCQYLPPGIFKSSCPMDLKNFPMDVQTCKLKFGSWSYGGWSLDLQMQEADISGYIPNGEWDLVGIPGKRSERFYECCKEPYPDVTFTVTMRRRMGYYLIQMYIPSLLIVILSWISFWINMDAAPARVGLGITTVLTMTTQSSGSRASLPKVSYVKAIDIWMAVCLLFVFSALLEYAAVNFVSRQHKELLRFRRKRRHHKSPMLNLFQEDEAGEGRFNFSAYGMGPACLQAKDGISVKGANNSNTTNPPPAPSKSPEEMRKLFIQRAKKIDKISRIGFPMAFLIFNMFYWIIYKIVRREDVHNQ", "modifications": "synthetic sequence of chimeric LGIC"}}, "tested_on": "Lenti-X 293T cells", "test": "YFP fluorescence quenching anion reporter plate reader assay of engineered receptors stimulated with acetylcholine or a non-native ligand", "type": "cell-based", "summary_of_the_method": "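YFP quench was followed for about 1 min 43 s after ligand delivered in iodide-based ECS, pH 7.2. Values are end-of-read fluorescence (last 10 s) divided by the pre-ligand baseline (15 s). Cells were LX293T, transfected with receptor DNA a day before the assay.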"}
{"molecule": "B1", "values": [{"measurement": "YFP fluorescence quenching using CNL001", "setting": "1 nM CNL001, first column", "result": 73.711, "unit": "%"}, {"measurement": "YFP fluorescence quenching using CNL001", "setting": "1 nM CNL001, second column", "result": 76.44, "unit": "%"}, {"measurement": "YFP fluorescence quenching using TC-5619/Bradanicline", "setting": "1 nM brd", "result": 4.12, "unit": "%"}, {"measurement": "YFP fluorescence quenching using TC-5619/Bradanicline", "setting": "3 nM brd", "result": 19.15, "unit": "%"}, {"measurement": "YFP fluorescence quenching using Varenicline", "setting": "3 nM var, first column", "result": "−0.902"}, {"measurement": "YFP fluorescence quenching using Varenicline", "setting": "3 nM var, second column", "result": "−7.62"}, {"measurement": "YFP fluorescence quenching using CNL001", "setting": "10 nM CNL001, first column", "result": 77.049, "unit": "%"}, {"measurement": "YFP fluorescence quenching using CNL001", "setting": "10 nM CNL001, second column", "result": 77.76, "unit": "%"}, {"measurement": "YFP fluorescence quenching using TC-5619/Bradanicline", "setting": "10 nM brd", "result": 68.98, "unit": "%"}, {"measurement": "YFP fluorescence quenching using TC-5619/Bradanicline", "setting": "30 nM brd", "result": 77.29, "unit": "%"}, {"measurement": "YFP fluorescence quenching using Facinicline", "setting": "30 nM fac", "result": 12.67}, {"measurement": "YFP fluorescence quenching using Varenicline", "setting": "30 nM var, first column", "result": "−6.009"}, {"measurement": "YFP fluorescence quenching using Varenicline", "setting": "30 nM var, second column", "result": "−3.447"}, {"measurement": "YFP fluorescence quenching using CNL001", "setting": "50 nM CNL001, first column", "result": 77.882, "unit": "%"}, {"measurement": "YFP fluorescence quenching using CNL001", "setting": "50 nM CNL001, second column", "result": 78.708, "unit": "%"}, {"measurement": "YFP fluorescence quenching using ABT-126", "setting": "50 nM abt", "result": "−16.65", "unit": "%"}, {"measurement": "YFP fluorescence quenching using CNL001", "setting": "100 nM CNL001, first column", "result": 79.567, "unit": "%"}, {"measurement": "YFP fluorescence quenching using CNL001", "setting": "100 nM CNL001, second column", "result": 79.273, "unit": "%"}, {"measurement": "YFP fluorescence quenching using CNL002", "setting": "100 nM CNL002", "result": 12.83, "unit": "%"}, {"measurement": "YFP fluorescence quenching using ABT-126", "setting": "100 nM abt", "result": "−12.3", "unit": "%"}, {"measurement": "YFP fluorescence quenching using AZD-0328", "setting": "100 nM azd0328", "result": 62.87, "unit": "%"}, {"measurement": "YFP fluorescence quenching using TC-5619/Bradanicline", "setting": "100 nM brd", "result": 81.41, "unit": "%"}, {"measurement": "YFP fluorescence quenching using ABT-126", "setting": "300 nM abt", "result": 18.5, "unit": "%"}, {"measurement": "YFP fluorescence quenching using AZD-0328", "setting": "300 nM azd0328", "result": 77.03, "unit": "%"}, {"measurement": "YFP fluorescence quenching using TC-5619/Bradanicline", "setting": "300 nM brd", "result": 75.79, "unit": "%"}, {"measurement": "YFP fluorescence quenching using Facinicline", "setting": "300 nM fac", "result": 80.4}, {"measurement": "YFP fluorescence quenching using Varenicline", "setting": "300 nM var, first column", "result": 49.328}, {"measurement": "YFP fluorescence quenching using Varenicline", "setting": "300 nM var, second column", "result": 47.685}, {"measurement": "YFP fluorescence quenching using Varenicline", "setting": "500 nM var, first column", "result": 66.7}, {"measurement": "YFP fluorescence quenching using Varenicline", "setting": "500 nM var, second column", "result": 64.798}, {"measurement": "YFP fluorescence quenching using CNL001", "setting": "1 uM CNL001, first column", "result": 79.992, "unit": "%"}, {"measurement": "YFP fluorescence quenching using CNL001", "setting": "1 uM CNL001, second column", "result": 79.927, "unit": "%"}, {"measurement": "YFP fluorescence quenching using CNL002", "setting": "1 uM CNL002", "result": 77.73, "unit": "%"}, {"measurement": "YFP fluorescence quenching using ABT-126", "setting": "1 uM abt", "result": 59.09, "unit": "%"}, {"measurement": "YFP fluorescence quenching using TC-5619/Bradanicline", "setting": "1 uM brd", "result": 82.26, "unit": "%"}, {"measurement": "YFP fluorescence quenching using TC-6987", "setting": "1 uM tc6987", "result": 50}, {"measurement": "YFP fluorescence quenching using Varenicline", "setting": "1 uM var, first column", "result": 70.85}, {"measurement": "YFP fluorescence quenching using Varenicline", "setting": "1 uM var, second column", "result": 69.038}, {"measurement": "YFP fluorescence quenching using TC-6987", "setting": "3 uM tc6987", "result": 80.39}, {"measurement": "YFP fluorescence quenching using TC-6987", "setting": "5 uM tc6987", "result": 79.93}, {"measurement": "YFP fluorescence quenching using Facinicline", "setting": "10 uM fac", "result": 82.18}, {"measurement": "YFP fluorescence quenching using TC-6987", "setting": "10 uM tc6987", "result": 80.99}, {"measurement": "YFP fluorescence quenching using CNL002", "setting": "30 uM CNL002", "result": 80.58, "unit": "%"}, {"measurement": "YFP fluorescence quenching using AZD-0328", "setting": "30 uM azd0328", "result": 78.63, "unit": "%"}, {"measurement": "YFP fluorescence quenching using Facinicline", "setting": "30 uM fac", "result": 82.14}, {"measurement": "YFP fluorescence quenching using TC-6987", "setting": "30 uM tc6987", "result": 83.11}, {"measurement": "YFP fluorescence quenching using TC-6987", "setting": "50 uM tc6987", "result": 83.18}, {"measurement": "YFP fluorescence quenching using TC-6987", "setting": "100 uM tc6987", "result": 82.16}, {"measurement": "YFP fluorescence quenching using TC-6987", "setting": "300 uM tc6987", "result": 64.58}, {"measurement": "YFP fluorescence quenching using TC-6987", "setting": "500 uM tc6987", "result": 76.77}, {"measurement": "percent quench of YFP fluorescence, 30 nM TC-6683", "setting": "TC-6683 30 nM", "result": "−18.32", "unit": "%"}, {"measurement": "percent quench of YFP fluorescence, 300 nM TC-6683", "setting": "TC-6683 300 nM", "result": "−17.25", "unit": "%"}, {"measurement": "percent quench of YFP fluorescence, 3 uM TC-6683", "setting": "TC-6683 3 uM", "result": "−10", "unit": "%"}, {"measurement": "percent quench of YFP fluorescence, 30 uM TC-6683", "setting": "TC-6683 30 uM", "result": "−8.51", "unit": "%"}, {"measurement": "percent quench of YFP fluorescence, 100 uM TC-6683", "setting": "TC-6683 100 uM", "result": "−9.77", "unit": "%"}, {"measurement": "percent quench of YFP fluorescence, 10 uM ach", "setting": "acetylcholine 10 uM", "result": 4.56, "unit": "%"}, {"measurement": "percent quench of YFP fluorescence, 100 uM ach", "setting": "acetylcholine 100 uM", "result": 10.19, "unit": "%"}, {"measurement": "percent quench of YFP fluorescence, 1 mM ach", "setting": "acetylcholine 1 mM", "result": 77.34, "unit": "%"}, {"measurement": "percent quench of YFP fluorescence, 3 mM ach", "setting": "acetylcholine 3 mM", "result": 77.79, "unit": "%"}]}
